Consider four sequences from patent US10562947B2, “Compositions and methods for preventing or treating diseases, conditions or processes characterized by aberrant fibroblast proliferation and extracellular matrix deposition” (MOERAE MATRIX, INC., priority 2011, dated 2020).

Common to all, as to experiment: Kinase Profiling Assay
Assay type in all cases: biochemical
What all share (conditions): 100 μM peptide

One test deals with CDK5/p35(h) (Homo sapiens, UniProt Q00535). As for the experimental part: (§1) Every kinase activity measurement was conducted in duplicate.
(§2) In addition to determining the IC50 of the compound, the specificity of MK2 inhibitory peptides was assessed by examining activities of all 266 human kinases available for testing in the Millipore kinase profiling service (Table 1).

A further test has as its target KDR(h) (Homo sapiens, UniProt P35968). How it is done:
as §1, §2

The next test concerns the target Rsk4(h) (Homo sapiens, UniProt Q9UK32). As for the experimental part: as §1, §2
The target of the next test is CDK7/cyclinH/MAT1(h) (Homo sapiens, UniProt P50613). How it is done:
as §1, §2

The target of the next test is EphA2(h) (Homo sapiens, UniProt P29317). How it is done:
as §1, §2

The target of the next test is T1, PKCθ(h) (Homo sapiens, UniProt Q04759).
T1 construct: purchased Millipore (IC50 Profiler Express service)
As for the experimental part:
as §1, §2

Another test deals with ACK1(h) (Homo sapiens, UniProt Q07912). As for the experimental part:
as §1, §2

The target in another test is FAK(h) (Homo sapiens, UniProt Q05397). As for the experimental part: as §1, §2
The target of another test is T2, GRK6(h) (Homo sapiens, UniProt P43250).
T2 construct: purchased Millipore
T2 sequence (P43250 whole entry): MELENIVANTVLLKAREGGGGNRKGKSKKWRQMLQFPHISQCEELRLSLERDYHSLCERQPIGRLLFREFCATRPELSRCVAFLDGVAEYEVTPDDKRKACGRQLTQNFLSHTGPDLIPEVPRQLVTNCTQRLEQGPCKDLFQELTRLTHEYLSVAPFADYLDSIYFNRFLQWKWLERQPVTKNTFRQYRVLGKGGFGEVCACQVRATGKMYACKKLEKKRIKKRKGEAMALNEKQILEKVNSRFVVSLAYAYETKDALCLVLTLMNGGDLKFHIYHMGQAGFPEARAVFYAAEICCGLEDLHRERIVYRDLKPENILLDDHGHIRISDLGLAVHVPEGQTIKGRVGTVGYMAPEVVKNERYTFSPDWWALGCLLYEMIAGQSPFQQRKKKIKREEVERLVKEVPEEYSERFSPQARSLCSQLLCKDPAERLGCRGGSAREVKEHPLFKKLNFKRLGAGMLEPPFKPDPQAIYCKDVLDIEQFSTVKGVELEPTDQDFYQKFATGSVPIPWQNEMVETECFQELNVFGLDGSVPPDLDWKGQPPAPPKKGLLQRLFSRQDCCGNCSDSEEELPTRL
As for the experimental part:
as §1, §2

For another test, the target named is EGFR(h) (Homo sapiens, UniProt P00533). How it is done: as §1, §2
Another test concerns the target T3, TSSK1(h) (Homo sapiens, UniProt Q9BXA7).
T3 sequence (Q9BXA7 1-367): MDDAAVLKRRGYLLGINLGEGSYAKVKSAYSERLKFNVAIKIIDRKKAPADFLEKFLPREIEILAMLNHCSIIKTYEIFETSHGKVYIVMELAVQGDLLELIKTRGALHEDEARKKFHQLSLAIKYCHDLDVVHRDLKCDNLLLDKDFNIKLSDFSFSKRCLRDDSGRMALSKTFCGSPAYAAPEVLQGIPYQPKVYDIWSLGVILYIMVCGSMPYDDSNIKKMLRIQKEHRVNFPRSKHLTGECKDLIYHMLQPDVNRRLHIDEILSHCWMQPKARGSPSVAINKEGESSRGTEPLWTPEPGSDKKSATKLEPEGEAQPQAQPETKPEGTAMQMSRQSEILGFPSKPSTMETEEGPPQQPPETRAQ
As for the experimental part: as §1, §2

For another test, the target named is T4, Tec(h) activated (Homo sapiens, UniProt P42680).
T4 sequence (P42680 1-631): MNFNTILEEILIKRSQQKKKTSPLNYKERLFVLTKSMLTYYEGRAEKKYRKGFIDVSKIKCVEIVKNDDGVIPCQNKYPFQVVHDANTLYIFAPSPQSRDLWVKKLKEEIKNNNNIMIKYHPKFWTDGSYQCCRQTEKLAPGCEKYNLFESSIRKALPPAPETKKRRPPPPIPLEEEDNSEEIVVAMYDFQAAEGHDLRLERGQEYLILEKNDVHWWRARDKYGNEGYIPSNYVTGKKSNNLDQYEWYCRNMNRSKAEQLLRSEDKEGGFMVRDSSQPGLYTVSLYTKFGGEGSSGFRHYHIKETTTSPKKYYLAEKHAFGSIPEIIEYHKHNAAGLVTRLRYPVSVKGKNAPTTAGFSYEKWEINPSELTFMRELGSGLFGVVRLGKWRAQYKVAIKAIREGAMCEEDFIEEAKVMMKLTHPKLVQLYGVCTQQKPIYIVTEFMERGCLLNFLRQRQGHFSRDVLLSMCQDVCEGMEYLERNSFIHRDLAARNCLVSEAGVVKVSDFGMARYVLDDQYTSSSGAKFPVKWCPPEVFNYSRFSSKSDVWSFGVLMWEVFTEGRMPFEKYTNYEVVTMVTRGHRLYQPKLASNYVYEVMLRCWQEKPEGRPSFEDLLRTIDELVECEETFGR
As for the experimental part: as §1, §2

The target in the next test is Met(D1246H)(h) (Homo sapiens, UniProt P08581, D1228H). How it is done: as §1, §2
For another test, the target named is T5, IRAK4(h) (Homo sapiens, UniProt Q9NWZ3).
T5 construct: purchased Millipore
T5 sequence (Q9NWZ3 1-460): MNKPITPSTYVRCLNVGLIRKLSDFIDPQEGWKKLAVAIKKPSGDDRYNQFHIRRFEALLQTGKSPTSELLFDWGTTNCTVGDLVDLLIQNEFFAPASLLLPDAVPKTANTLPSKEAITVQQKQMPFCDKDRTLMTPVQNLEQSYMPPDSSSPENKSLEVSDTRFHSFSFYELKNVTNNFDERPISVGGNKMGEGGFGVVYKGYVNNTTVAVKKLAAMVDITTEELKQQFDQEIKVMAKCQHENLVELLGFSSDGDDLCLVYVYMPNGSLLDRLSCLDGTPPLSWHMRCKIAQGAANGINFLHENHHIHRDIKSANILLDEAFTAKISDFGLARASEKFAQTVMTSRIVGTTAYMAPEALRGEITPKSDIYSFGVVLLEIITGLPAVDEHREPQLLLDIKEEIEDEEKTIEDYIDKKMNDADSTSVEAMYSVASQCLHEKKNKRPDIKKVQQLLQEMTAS
How it is done:
as §1, §2

A further test concerns the target T6, JAK2(h) (Homo sapiens, UniProt O60674).
T6 construct: purchased Millipore
As for the experimental part:
as §1, §2

The next test concerns the target Met(h) (Homo sapiens, UniProt P08581). How it is done: as §1, §2
The next test deals with PDGFRα(V561D)(h) (Homo sapiens, UniProt P16234, V561D). As for the experimental part: as §1, §2
Sequence of PDGFRα(V561D)(h) (P16234 24-1089 V561D): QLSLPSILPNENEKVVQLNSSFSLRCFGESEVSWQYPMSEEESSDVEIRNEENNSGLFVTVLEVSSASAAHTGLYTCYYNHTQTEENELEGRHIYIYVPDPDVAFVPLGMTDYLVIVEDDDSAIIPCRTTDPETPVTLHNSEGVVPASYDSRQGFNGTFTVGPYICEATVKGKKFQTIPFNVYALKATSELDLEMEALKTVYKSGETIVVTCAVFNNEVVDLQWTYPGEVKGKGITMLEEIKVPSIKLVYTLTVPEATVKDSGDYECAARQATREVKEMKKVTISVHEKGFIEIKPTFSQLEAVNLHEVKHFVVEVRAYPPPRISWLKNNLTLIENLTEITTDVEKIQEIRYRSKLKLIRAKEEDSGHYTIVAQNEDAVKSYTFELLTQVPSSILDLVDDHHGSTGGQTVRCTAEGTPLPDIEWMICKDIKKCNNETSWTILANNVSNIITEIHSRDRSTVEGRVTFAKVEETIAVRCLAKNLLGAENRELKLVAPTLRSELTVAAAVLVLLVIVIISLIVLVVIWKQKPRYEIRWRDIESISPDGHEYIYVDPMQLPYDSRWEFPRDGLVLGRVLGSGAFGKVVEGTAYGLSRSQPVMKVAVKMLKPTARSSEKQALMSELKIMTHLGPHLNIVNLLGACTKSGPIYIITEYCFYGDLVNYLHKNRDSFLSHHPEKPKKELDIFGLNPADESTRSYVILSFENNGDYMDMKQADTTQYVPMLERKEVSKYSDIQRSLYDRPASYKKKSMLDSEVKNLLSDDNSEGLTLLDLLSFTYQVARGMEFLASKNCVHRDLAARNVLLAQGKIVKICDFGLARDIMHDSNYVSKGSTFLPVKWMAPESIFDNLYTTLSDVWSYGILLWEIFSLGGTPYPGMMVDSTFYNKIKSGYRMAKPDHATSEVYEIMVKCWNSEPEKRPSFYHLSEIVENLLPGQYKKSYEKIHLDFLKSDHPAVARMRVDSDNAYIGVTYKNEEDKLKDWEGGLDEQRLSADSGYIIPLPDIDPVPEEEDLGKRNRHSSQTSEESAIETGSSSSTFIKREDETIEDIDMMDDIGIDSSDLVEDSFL
A further test deals with DAPK1(h) (Homo sapiens, UniProt P53355). How it is done: as §1, §2
For another test, the target named is MAPK2(h) (Homo sapiens, UniProt P28482). How it is done:
as §1, §2

Sequence of ACK1(h) (Q07912 whole entry): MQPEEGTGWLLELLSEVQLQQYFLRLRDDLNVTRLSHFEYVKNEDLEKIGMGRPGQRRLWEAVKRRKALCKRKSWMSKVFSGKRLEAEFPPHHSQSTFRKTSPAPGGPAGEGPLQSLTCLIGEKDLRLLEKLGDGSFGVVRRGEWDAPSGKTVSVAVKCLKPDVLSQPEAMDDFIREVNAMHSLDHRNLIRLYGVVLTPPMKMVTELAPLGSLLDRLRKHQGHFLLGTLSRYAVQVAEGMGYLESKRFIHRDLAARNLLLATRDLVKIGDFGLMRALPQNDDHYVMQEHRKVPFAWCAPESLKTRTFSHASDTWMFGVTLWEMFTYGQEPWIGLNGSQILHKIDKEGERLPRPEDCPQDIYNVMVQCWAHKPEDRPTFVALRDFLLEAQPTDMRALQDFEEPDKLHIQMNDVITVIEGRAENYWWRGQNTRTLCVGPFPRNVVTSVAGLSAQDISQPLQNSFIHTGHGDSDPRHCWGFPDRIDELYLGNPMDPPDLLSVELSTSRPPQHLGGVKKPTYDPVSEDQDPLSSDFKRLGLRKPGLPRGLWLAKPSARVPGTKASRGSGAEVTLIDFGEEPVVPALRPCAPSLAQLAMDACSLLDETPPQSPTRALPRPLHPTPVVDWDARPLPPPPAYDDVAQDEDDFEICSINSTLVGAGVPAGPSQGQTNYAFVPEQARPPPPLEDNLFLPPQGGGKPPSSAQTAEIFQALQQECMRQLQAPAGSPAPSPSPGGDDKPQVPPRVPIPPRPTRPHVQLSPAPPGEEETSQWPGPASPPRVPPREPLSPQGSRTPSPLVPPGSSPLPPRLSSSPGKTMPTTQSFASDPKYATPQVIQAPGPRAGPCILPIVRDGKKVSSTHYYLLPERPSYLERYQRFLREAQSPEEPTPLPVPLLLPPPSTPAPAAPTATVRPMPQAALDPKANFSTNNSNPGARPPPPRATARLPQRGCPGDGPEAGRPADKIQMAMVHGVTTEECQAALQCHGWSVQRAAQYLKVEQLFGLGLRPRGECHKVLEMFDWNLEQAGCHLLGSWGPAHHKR
Sequence of CDK7/cyclinH/MAT1(h) (P50613 whole entry): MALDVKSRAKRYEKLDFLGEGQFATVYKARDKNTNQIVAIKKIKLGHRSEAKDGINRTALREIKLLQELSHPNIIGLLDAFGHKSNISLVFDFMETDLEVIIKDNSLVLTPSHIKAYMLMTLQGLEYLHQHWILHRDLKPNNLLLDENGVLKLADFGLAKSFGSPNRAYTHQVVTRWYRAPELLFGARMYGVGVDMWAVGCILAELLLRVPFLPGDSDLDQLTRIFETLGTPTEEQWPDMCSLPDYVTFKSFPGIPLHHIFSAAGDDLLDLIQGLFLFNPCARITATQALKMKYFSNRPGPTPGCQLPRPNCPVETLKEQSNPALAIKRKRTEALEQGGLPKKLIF
Sequence of CDK7/cyclinH/MAT1(h) (P51946 whole entry partner): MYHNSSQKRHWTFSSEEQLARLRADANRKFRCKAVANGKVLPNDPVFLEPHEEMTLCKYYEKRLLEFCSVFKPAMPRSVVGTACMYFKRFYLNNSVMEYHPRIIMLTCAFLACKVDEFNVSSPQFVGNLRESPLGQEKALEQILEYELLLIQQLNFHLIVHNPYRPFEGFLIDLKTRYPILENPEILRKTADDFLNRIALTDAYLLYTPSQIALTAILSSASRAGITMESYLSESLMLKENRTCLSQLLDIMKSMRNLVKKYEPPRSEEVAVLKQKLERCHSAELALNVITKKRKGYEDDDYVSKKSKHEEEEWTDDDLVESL
Sequence of CDK7/cyclinH/MAT1(h) (P51948 whole entry partner): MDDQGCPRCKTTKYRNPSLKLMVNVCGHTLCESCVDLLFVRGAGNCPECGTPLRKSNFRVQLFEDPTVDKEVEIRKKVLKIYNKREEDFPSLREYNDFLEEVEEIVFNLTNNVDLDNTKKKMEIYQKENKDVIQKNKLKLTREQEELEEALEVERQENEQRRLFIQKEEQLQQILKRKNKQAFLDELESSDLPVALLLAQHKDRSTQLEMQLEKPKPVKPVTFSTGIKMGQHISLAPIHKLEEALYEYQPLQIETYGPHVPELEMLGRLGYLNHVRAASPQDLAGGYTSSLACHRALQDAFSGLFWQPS
Sequence of KDR(h) (P35968 20-1356): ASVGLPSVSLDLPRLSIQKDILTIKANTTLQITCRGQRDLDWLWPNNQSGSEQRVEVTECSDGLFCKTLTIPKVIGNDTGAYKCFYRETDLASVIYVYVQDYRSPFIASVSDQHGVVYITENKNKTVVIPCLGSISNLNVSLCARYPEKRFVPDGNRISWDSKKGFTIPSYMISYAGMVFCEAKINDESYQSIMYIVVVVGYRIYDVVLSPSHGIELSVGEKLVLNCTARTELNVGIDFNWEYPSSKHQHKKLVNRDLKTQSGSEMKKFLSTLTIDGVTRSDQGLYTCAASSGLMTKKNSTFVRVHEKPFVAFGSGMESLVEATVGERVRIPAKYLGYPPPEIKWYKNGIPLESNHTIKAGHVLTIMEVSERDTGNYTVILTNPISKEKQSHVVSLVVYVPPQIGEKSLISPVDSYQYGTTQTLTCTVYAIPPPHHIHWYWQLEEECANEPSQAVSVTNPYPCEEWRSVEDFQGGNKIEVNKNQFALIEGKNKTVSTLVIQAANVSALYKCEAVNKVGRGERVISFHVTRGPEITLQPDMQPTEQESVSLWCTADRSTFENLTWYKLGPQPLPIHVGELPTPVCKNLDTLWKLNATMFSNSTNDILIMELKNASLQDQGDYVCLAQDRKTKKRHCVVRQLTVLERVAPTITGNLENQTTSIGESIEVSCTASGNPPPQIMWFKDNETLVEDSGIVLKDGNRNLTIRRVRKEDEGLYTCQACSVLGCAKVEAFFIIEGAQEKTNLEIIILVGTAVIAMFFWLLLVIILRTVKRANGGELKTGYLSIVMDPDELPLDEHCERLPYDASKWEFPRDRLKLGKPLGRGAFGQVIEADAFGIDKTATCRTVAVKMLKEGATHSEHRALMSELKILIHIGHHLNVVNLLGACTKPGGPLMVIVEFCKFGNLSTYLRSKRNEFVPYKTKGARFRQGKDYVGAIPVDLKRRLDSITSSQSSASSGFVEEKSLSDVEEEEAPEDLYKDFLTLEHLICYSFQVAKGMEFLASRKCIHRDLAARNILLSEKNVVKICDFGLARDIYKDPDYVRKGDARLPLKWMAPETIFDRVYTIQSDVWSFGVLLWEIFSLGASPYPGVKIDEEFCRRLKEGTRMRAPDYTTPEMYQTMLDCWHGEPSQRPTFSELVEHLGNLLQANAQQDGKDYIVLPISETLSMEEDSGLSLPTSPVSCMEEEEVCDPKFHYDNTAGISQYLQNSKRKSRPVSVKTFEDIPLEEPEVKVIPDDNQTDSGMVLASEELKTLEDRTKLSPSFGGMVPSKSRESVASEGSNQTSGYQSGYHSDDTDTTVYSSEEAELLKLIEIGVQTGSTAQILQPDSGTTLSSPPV

For the sequence “YARAAARQARAKALNRQLGVA (Mammalian) [MMI-0200]”, in the test with CDK5/p35(h), the “CDK5/p35(h) % activity” value turned out to be 92%. Further, in the test with KDR(h), the “KDR(h) % activity” value was determined as 110%. Also, in the test with Rsk4(h), the “Rsk4(h) % activity” value was 125%. In the test with CDK7/cyclinH/MAT1(h), the “CDK7/cyclinH/MAT1(h) % activity” value was 67%. For the same sequence, in the test with EphA2(h), the “EphA2(h) % activity” value is given as 95%. Besides, the “PKCθ(h) % activity” value with PKCθ(h) is recorded as 101%. The “ACK1(h) % activity” value with ACK1(h) came out at 97%. Further, the “FAK(h) % activity” value with FAK(h) was 110%. In addition, the “GRK6(h) % activity” value with GRK6(h) is 132%. The “EGFR(h) % activity” value in the test with EGFR(h) was determined as 83%. The “TSSK1(h) % activity” value with TSSK1(h) amounted to 98%. In the test with Tec(h) activated, the “Tec(h) activated % activity” value amounted to 77%. For the same sequence, the “Met(D1246H)(h) % activity” value in the test with Met(D1246H)(h) was 139%. For the same sequence, the “IRAK4(h) % activity” value with IRAK4(h) was determined as 110%. For the same sequence, the “JAK2(h) % activity” value in the test with JAK2(h) came to 131%. Further, the “Met(h) % activity” value in the test with Met(h) is 71%.

Take “HRRIKAWLKKIKALARQLGVAA (Mammalian) [MMI-0500]”: the “CDK5/p35(h) % activity” value with CDK5/p35(h) amounted to 59%. The “KDR(h) % activity” value in the test with KDR(h) is listed as 15%. Further, in the test with PDGFRα(V561D)(h), the “PDGFRα(V561D)(h) % activity” value was 146%. The “Rsk4(h) % activity” value in the test with Rsk4(h) was determined as 29%. For the same sequence, the “CDK7/cyclinH/MAT1(h) % activity” value with CDK7/cyclinH/MAT1(h) is listed as 15%. The “PKCθ(h) % activity” value with PKCθ(h) was 62%. Besides, the “ACK1(h) % activity” value in the test with ACK1(h) stood at 64%. Besides, the “DAPK1(h) % activity” value with DAPK1(h) is reported as 0%. Besides, the “FAK(h) % activity” value with FAK(h) is 94%. In addition, the “GRK6(h) % activity” value in the test with GRK6(h) stood at 174%. Besides, the “EGFR(h) % activity” value with EGFR(h) was −1%. Moreover, the “TSSK1(h) % activity” value with TSSK1(h) is reported as 46%. Also, the “Tec(h) activated % activity” value with Tec(h) activated is 33%. For the same sequence, the “Met(D1246H)(h) % activity” value with Met(D1246H)(h) is 150%. In addition, the “IRAK4(h) % activity” value with IRAK4(h) is on record as 3%. Also, the “MAPK2(h) % activity” value in the test with MAPK2(h) came out at 60%. Further, the “JAK2(h) % activity” value with JAK2(h) is reported as 49%. Besides, in the test with Met(h), the “Met(h) % activity” value came to 27%.

As to KAFAKLAARLYRKALARQLGVAA [MMI-0400], the “CDK5/p35(h) % activity” value with CDK5/p35(h) stood at 76%. The “KDR(h) % activity” value with KDR(h) is listed as 94%. Besides, in the test with PDGFRα(V561D)(h), the “PDGFRα(V561D)(h) % activity” value is recorded as 100%. Further, the “Rsk4(h) % activity” value in the test with Rsk4(h) came to 91%. For the same sequence, the “CDK7/cyclinH/MAT1(h) % activity” value with CDK7/cyclinH/MAT1(h) stood at 47%. Moreover, the “EphA2(h) % activity” value with EphA2(h) was found to be 17%. For the same sequence, in the test with PKCθ(h), the “PKCθ(h) % activity” value was 76%. For the same sequence, the “ACK1(h) % activity” value with ACK1(h) is on record as 95%. Further, the “DAPK1(h) % activity” value with DAPK1(h) is 36%. Also, in the test with FAK(h), the “FAK(h) % activity” value is 96%. Also, the “GRK6(h) % activity” value with GRK6(h) stood at 141%. Further, the “EGFR(h) % activity” value in the test with EGFR(h) stood at 16%. Further, in the test with TSSK1(h), the “TSSK1(h) % activity” value turned out to be 79%. Moreover, the “Tec(h) activated % activity” value in the test with Tec(h) activated worked out at 29%. Besides, the “Met(D1246H)(h) % activity” value with Met(D1246H)(h) is recorded as 68%. For the same sequence, the “IRAK4(h) % activity” value in the test with IRAK4(h) stood at 59%. Besides, in the test with MAPK2(h), the “MAPK2(h) % activity” value turned out to be 93%. Further, the “Met(h) % activity” value with Met(h) turned out to be 62%.

Consider FAKLAARLYRKALARQLGVAA [MMI-0300], for which the “CDK5/p35(h) % activity” value with CDK5/p35(h) was 79%. Moreover, the “KDR(h) % activity” value with KDR(h) came out at 101%. For the same sequence, the “PDGFRα(V561D)(h) % activity” value with PDGFRα(V561D)(h) worked out at 82%. For the same sequence, the “Rsk4(h) % activity” value with Rsk4(h) is 90%. The “CDK7/cyclinH/MAT1(h) % activity” value in the test with CDK7/cyclinH/MAT1(h) was 65%. The “EphA2(h) % activity” value with EphA2(h) amounted to 31%. The “PKCθ(h) % activity” value with PKCθ(h) is given as 88%. In addition, the “DAPK1(h) % activity” value with DAPK1(h) is reported as 46%. The “GRK6(h) % activity” value with GRK6(h) is reported as 147%. In the test with EGFR(h), the “EGFR(h) % activity” value worked out at 21%. Besides, the “TSSK1(h) % activity” value with TSSK1(h) was 79%. Besides, in the test with Tec(h) activated, the “Tec(h) activated % activity” value worked out at 56%. Moreover, the “Met(D1246H)(h) % activity” value in the test with Met(D1246H)(h) came out at 125%. Moreover, in the test with IRAK4(h), the “IRAK4(h) % activity” value turned out to be 59%. The “MAPK2(h) % activity” value with MAPK2(h) stood at 98%. In addition, the “JAK2(h) % activity” value with JAK2(h) was 133%. In addition, the “Met(h) % activity” value in the test with Met(h) was 65%.
